According to paper PMC10113246, “Disease-related p63 DBD mutations impair DNA binding by distinct mechanisms and varying degree”:

T1: ΔNp63α R227Q (UniProt Q9H3D4-2 1-586, R172Q)
T1 sequence: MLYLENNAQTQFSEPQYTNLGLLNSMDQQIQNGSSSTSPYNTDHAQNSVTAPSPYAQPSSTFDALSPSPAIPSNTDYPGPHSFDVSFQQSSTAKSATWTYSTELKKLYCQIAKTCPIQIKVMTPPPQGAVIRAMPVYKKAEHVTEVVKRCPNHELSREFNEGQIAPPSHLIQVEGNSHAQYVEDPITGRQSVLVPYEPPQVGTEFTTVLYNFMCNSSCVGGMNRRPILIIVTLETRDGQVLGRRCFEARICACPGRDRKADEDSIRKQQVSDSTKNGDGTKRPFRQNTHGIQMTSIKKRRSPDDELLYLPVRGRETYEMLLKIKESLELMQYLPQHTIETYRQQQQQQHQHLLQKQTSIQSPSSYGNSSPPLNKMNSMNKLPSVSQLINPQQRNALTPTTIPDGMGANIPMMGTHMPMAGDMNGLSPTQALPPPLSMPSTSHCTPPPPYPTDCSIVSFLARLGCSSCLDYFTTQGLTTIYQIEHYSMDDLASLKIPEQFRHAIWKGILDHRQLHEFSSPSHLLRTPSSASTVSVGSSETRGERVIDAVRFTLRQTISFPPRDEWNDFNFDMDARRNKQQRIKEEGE

B1: p21 RE (pulldown) (dsDNA)
DNA 1: GCCAGGAACATGTCCCAACATGTTGAGCCG
DNA 2: CGGCTCAACATGTTGGGACATGTTCCTGGC
B2: KRT14 RE (pulldown) (dsDNA)
DNA 1: AAAATATGACAGACATGATGAGGCGGATGA
DNA 2: TCATCCGCCTCATCATGTCTGTCATATTTT

Biological target: T1, ΔNp63α R227Q
Experiment: pull-down; not significantly different from WT; SPR DBD-TD: 25 mM HEPES pH 7.5, 200 mM NaCl, 0.5 mM TCEP, 0.005% Tween-20; SPR DBD: 10 mM HEPES pH 7.5, 150 mM NaCl, 0.2 mM TCEP, 0.005% Tween-20; random-sequence dsDNA (S12/S13) as reference cell; pull-down: 50 mM Tris pH 8.0, 150 mM NaCl, 0.1% Tween-20, 4 °C
Settings: protein: ivt, tags: Myc, chain copies: 4, blunt

Row | Binder | binding result (label: 5' biotin on S8) | binding result (label: 5' biotin on S10)
1 | B1 | binds | 
2 | B2 |  | binds
